Laboratory results taken from the supplement of paper PMC10567573.

B1: RAB11A (parent)
chain: AVPTDEARAFAEKNGLSFIETSAL

Variants of: B1
Test: protein stability index of a GFP-peptide fusion (GPS, HEK-293T) (PSI 1-6); higher = more stable
Conditions: c terminus: a fixed tail appended
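Further: lentivirally expressed fusions sorted by FACS into six bins by GFP to DsRed ratio, PSI derived from sequencing read proportions per bin multiplied by bin number.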

Variant	protein stability index
QVPTDEARAFAEKNGLSFIETSAL	2.43
RVPTDEARAFAEKNGLSFIETSAL	2.46
SVPTDEARAFAEKNGLSFIETSAL	2.56
TVPTDEARAFAEKNGLSFIETSAL	2.55
VVPTDEARAFAEKNGLSFIETSAL	2.49
WVPTDEARAFAEKNGLSFIETSAL	1.8
YVPTDEARAFAEKNGLSFIETSAL	2.23
AAPTDEARAFAEKNGLSFIETSAL	2.51
ACPTDEARAFAEKNGLSFIETSAL	2.15
ADPTDEARAFAEKNGLSFIETSAL	2.74
AEPTDEARAFAEKNGLSFIETSAL	2.97
AFPTDEARAFAEKNGLSFIETSAL	2.35
AGPTDEARAFAEKNGLSFIETSAL	2.73
AHPTDEARAFAEKNGLSFIETSAL	2.46
AIPTDEARAFAEKNGLSFIETSAL	2.18
AKPTDEARAFAEKNGLSFIETSAL	2.11
ALPTDEARAFAEKNGLSFIETSAL	2.48
AMPTDEARAFAEKNGLSFIETSAL	2.67
ANPTDEARAFAEKNGLSFIETSAL	2.52
APPTDEARAFAEKNGLSFIETSAL	2.98
AQPTDEARAFAEKNGLSFIETSAL	2
ARPTDEARAFAEKNGLSFIETSAL	2.56
ASPTDEARAFAEKNGLSFIETSAL	2.48
ATPTDEARAFAEKNGLSFIETSAL	2.47

Variant	protein stability index
AWPTDEARAFAEKNGLSFIETSAL	2.05
AYPTDEARAFAEKNGLSFIETSAL	2.49
AVATDEARAFAEKNGLSFIETSAL	2.61
AVCTDEARAFAEKNGLSFIETSAL	1.67
AVDTDEARAFAEKNGLSFIETSAL	3.01
AVETDEARAFAEKNGLSFIETSAL	2.47
AVFTDEARAFAEKNGLSFIETSAL	2.23
AVGTDEARAFAEKNGLSFIETSAL	2.41
AVHTDEARAFAEKNGLSFIETSAL	2.54
AVITDEARAFAEKNGLSFIETSAL	2.36
AVKTDEARAFAEKNGLSFIETSAL	2.55
AVLTDEARAFAEKNGLSFIETSAL	2.59
AVMTDEARAFAEKNGLSFIETSAL	2.47
AVNTDEARAFAEKNGLSFIETSAL	2.77
AVQTDEARAFAEKNGLSFIETSAL	2.78
AVRTDEARAFAEKNGLSFIETSAL	2.07
AVSTDEARAFAEKNGLSFIETSAL	2.57
AVTTDEARAFAEKNGLSFIETSAL	2.81
AVVTDEARAFAEKNGLSFIETSAL	2.14
AVWTDEARAFAEKNGLSFIETSAL	2.08
AVYTDEARAFAEKNGLSFIETSAL	2.23
AVPADEARAFAEKNGLSFIETSAL	2.04
AVPCDEARAFAEKNGLSFIETSAL	1.89
AVPDDEARAFAEKNGLSFIETSAL	2.84

Variant	protein stability index
AVPEDEARAFAEKNGLSFIETSAL	2.75
AVPFDEARAFAEKNGLSFIETSAL	2.06
AVPGDEARAFAEKNGLSFIETSAL	2.52
AVPHDEARAFAEKNGLSFIETSAL	2.6
AVPIDEARAFAEKNGLSFIETSAL	2.28
AVPKDEARAFAEKNGLSFIETSAL	2.39
AVPLDEARAFAEKNGLSFIETSAL	2.79
AVPMDEARAFAEKNGLSFIETSAL	2.12
AVPNDEARAFAEKNGLSFIETSAL	2.22
AVPPDEARAFAEKNGLSFIETSAL	2.43
AVPQDEARAFAEKNGLSFIETSAL	2.84
AVPRDEARAFAEKNGLSFIETSAL	2.02
AVPSDEARAFAEKNGLSFIETSAL	2.23
AVPVDEARAFAEKNGLSFIETSAL	1.93
AVPWDEARAFAEKNGLSFIETSAL	1.93
AVPYDEARAFAEKNGLSFIETSAL	2.11
AVPTAEARAFAEKNGLSFIETSAL	1.77
AVPTCEARAFAEKNGLSFIETSAL	1.89
AVPTEEARAFAEKNGLSFIETSAL	2.35
AVPTFEARAFAEKNGLSFIETSAL	1.92
AVPTGEARAFAEKNGLSFIETSAL	1.94
AVPTHEARAFAEKNGLSFIETSAL	2.33
AVPTIEARAFAEKNGLSFIETSAL	2.04
AVPTKEARAFAEKNGLSFIETSAL	1.79

Variant	protein stability index
AVPTLEARAFAEKNGLSFIETSAL	2.41
AVPTMEARAFAEKNGLSFIETSAL	1.72
AVPTNEARAFAEKNGLSFIETSAL	1.95
AVPTPEARAFAEKNGLSFIETSAL	2.23
AVPTQEARAFAEKNGLSFIETSAL	2.07
AVPTREARAFAEKNGLSFIETSAL	1.99
AVPTSEARAFAEKNGLSFIETSAL	2.19
AVPTTEARAFAEKNGLSFIETSAL	2.52
AVPTVEARAFAEKNGLSFIETSAL	2.05
AVPTWEARAFAEKNGLSFIETSAL	1.49
AVPTYEARAFAEKNGLSFIETSAL	2.15
AVPTDAARAFAEKNGLSFIETSAL	1.94
AVPTDCARAFAEKNGLSFIETSAL	2.13
AVPTDDARAFAEKNGLSFIETSAL	2.18
AVPTDFARAFAEKNGLSFIETSAL	1.73
AVPTDGARAFAEKNGLSFIETSAL	1.87
AVPTDHARAFAEKNGLSFIETSAL	1.87
AVPTDIARAFAEKNGLSFIETSAL	1.73
AVPTDKARAFAEKNGLSFIETSAL	1.8
AVPTDLARAFAEKNGLSFIETSAL	1.6
AVPTDMARAFAEKNGLSFIETSAL	2.15
AVPTDNARAFAEKNGLSFIETSAL	2.24
